Molecular target: T1, E. cloacae His6-CD-NTase fused at its C terminus to GFP
T1 chain: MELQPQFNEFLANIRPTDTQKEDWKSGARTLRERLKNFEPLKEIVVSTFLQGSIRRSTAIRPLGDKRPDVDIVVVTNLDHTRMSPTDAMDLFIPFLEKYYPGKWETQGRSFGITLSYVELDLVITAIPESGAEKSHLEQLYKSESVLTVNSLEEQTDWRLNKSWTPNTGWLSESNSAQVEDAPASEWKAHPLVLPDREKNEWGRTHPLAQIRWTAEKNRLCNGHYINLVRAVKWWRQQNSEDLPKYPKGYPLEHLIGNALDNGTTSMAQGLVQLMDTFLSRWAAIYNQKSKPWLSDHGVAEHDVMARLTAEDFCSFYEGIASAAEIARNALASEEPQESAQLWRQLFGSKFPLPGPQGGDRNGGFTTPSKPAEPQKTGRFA

B1: E. cloacae Cap3, residues 17-180 of the annotated gene (protein)
chain: MSIKDVTFSSEGALYTIVISSSTIEQMVSECLKAGVNETGGILIGSYSEDSSTAMIVEATTRPADSLAGRTTFQRGVRGLRPLLHARWKTGLYYVGEWHFHPGGSPEPSGDDFRSMTSIAANSDYQCLEPVMIILGGDPAGSYSLSASVSPRGDAPIRLREVLI
- cleavage of the CD-NTase-GFP model substrate (SDS-PAGE, mass spectrometry): Both Cap3 proteins precisely cleaved the CD-NTase-GFP fusions at the CD-NTase C terminus

From US20230287362
